Results reported in publication PMC12144448.

Biological target: Drosophila CMP-sialic acid synthetase (CSAS), wild-type, 3xFLAG-tagged (Drosophila)
Assay: SEC; clarified lysate of flies expressing CSAS-FLAG on a calibrated Superdex 75 10/30 HR column; 150 mM NaCl in 20 mM potassium phosphate pH 6.8; fractions analysed by FLAG Western blot

Drosophila CMP-sialic acid synthetase (CSAS), wild-type, 3xFLAG-tagged (enzyme)
stoichiometry N: 2
